Numbering of substitutions follows the chain as printed. Names and notes keep the numbering of the source.

This is an account of results in patent US20240092919A1 (Ablynx, published 2024).

The labels stand for the following.
B1: T017000141 (VHH, not shown: small tags and cut ends)
VHH: EVQLVESGGGVVQPGGSLRLSCVASGDVHKINFLGWYRQAPGKEREKVAHISIGDQTDYADSAKGRFTISRDESKNMVYLQMNSLRPEDTALYFCRAFSRIYPYDYWGQGTLVTVSS
notes: also called T0170000141
B2: T017000468 (VHH)
VHH: B1 VHH with D27S, L34Y, Y102W
B3: T017000613 (VHH)
VHH: B1 VHH with G26W, L34Y, F98L, R100K, Y102W
B4: T017000358 (VHH)
VHH: B1 VHH with D27A, I31L, F98M, Y102W
B5: T017000569 (VHH)
VHH: B1 VHH with I31L, F98M, Y102W
B6: T017000602 (VHH)
VHH: B1 VHH with G26W, K30Q, R100K, Y102W
B7: T017000615 (VHH)
VHH: B1 VHH with G26Y, L34Y, F98L, R100K, Y102W
B8: T017000390 (VHH)
VHH: B1 VHH with G26W, K30Q, F98M, R100K, Y102W
B9: T017000383 (VHH)
VHH: B1 VHH with K30Q, F98M, Y102W
B10: T017000630 (bispecific antibody)
chain: DVQLVESGGGLVQAGGSLRLSCAASGITSKINDMGWYRQTPGNYREWVASITATGTTNYRDSVKGRFTISRDNAKSTVYLQMNSLKPEDTTVYYCNTFPPISNFWGQGTLVTVSSGGGGSGGGGSGGGGSGGGGSGGGGSGGGGSGGGGSEVQLVESGGGVVQPGGSLRLSCVASWDVHKINFYGWYRQAPGKEREKVAHISIGDQTDYADSAKGRFTISRDESKNTVYLQMNSLRPEDTALYYCRALSKIWPYDYWGQGTLVTVSSA
notes: also called A0110056A10(E1D)-35GS-T0170056G05(L11V, G26W, L34Y, M77T, K83R, V89L, F91Y, F95L, R97K, Y99W)-A
B11: T017000640 (bispecific antibody)
chain: B10 chain with G185T, K250R
notes: also called A0110056A10(E1D)-35GS-T0170056G05(L11V, G26W, L34Y, G35T, M77T, K83R, V89L, F91Y, F95L, Y99W)-A
B12: T017000643 (bispecific antibody)
chain: B10 chain with G185T
notes: also called A0110056A10(E1D)-35GS-T0170056G05(L11V, G26W, L34Y, G35T, M77T, K83R, V89L, F91Y, F95L, R97K, Y99W)-A
B13: T017000631 (bispecific antibody)
chain: B10 chain with W176Y
notes: also called A0110056A10(E1D)-35GS-T0170056G05(L11V, G26Y, L34Y, M77T, K83R, V89L, F91Y, F95L, R97K, Y99W)-A
B14: T017000627 (bispecific antibody)
chain: DVQLVESGGGVVQPGGSLRLSCVASWDVHKINFYGWYRQAPGKEREKVAHISIGDQTDYADSAKGRFTISRDESKNTVYLQMNSLRPEDTALYYCRALSKIWPYDYWGQGTLVTVSSGGGGSGGGGSGGGGSGGGGSGGGGSGGGGSGGGGSEVQLVESGGGLVQAGGSLRLSCAASGITSKINDMGWYRQTPGNYREWVASITATGTTNYRDSVKGRFTISRDNAKSTVYLQMNSLKPEDTTVYYCNTFPPISNFWGQGTLVTVSSA
B15: T017000642 (bispecific antibody)
chain: B14 chain with G35T
B16: T017000639 (bispecific antibody)
chain: B14 chain with G35T, K100R
B17: T017000636 (bispecific antibody)
chain: B14 chain with K30Q, K100R
B18: T017000291 (VHH)
VHH: B1 VHH with Y102W
B19: T017000290 (VHH)
VHH: B1 VHH with R100K
B20: T017000281 (VHH)
VHH: B1 VHH with F98M
B21: T017000285 (VHH)
VHH: B1 VHH with D105L
B22: T017000312 (VHH)
VHH: B1 VHH with F98L
B23: T017000302 (VHH)
VHH: B1 VHH with D105T
B24: T017000283 (VHH)
VHH: B1 VHH with R100S
B25: T017000287 (VHH)
VHH: B1 VHH with D105Q
B26: T017000301 (VHH)
VHH: B1 VHH with D105A
B27: T017000294 (VHH)
VHH: B1 VHH with Y106W

One assay addresses T1, Cynomolgus TCR(AEA41865/AEA41866)-zipper protein (cynomolgus monkey).
T1 construct: also called cyTCR-zipper protein; cynoTCR zipper
T1 TCR alpha: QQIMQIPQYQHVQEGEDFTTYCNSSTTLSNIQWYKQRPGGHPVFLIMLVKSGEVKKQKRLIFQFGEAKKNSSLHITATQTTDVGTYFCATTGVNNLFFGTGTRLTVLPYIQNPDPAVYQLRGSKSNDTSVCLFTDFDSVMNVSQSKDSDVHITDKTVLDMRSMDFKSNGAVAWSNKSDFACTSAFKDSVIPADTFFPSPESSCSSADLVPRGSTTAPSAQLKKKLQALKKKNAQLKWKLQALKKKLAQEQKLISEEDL
T1 TCR beta: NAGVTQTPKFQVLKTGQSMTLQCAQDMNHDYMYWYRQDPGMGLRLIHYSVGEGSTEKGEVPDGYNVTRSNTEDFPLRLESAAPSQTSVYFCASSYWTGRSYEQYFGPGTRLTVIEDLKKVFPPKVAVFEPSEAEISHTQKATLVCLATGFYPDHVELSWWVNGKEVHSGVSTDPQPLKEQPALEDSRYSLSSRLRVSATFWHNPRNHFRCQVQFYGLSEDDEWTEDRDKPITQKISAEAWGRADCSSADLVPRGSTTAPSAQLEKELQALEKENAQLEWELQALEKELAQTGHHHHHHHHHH
As to the kind of experiment: ratio higher/lower kd on huTCR- and cyTCR-zipper (SPR).
Description: (§1) Unique ISVD clones, i.e. clones with a unique sequence, were subsequently selected and screened to determine their off-rate. To this purpose, the ISVD containing periplasmic extracts were screened on huTCR-zipper and cyTCR-zipper protein by SPR on a ProteOn XPR36 instrument. The zipper proteins were immobilized on a GLC sensor chip (between 4300 and 5100RU) via amine coupling chemistry, using EDC/sulfo-NHS for activation of the carboxyl groups on the chip surface (running buffer: HBS-EP+, pH7.4). Periplasmic extracts were injected at 1/10 dilution for 2 min (at a flow rate of 45 μL/min) and dissociation was followed for 900 s. A pulse of 100 s of 3 M MgCl2 at 45 μL/min was used for regeneration. […] Processed sensorgrams were fitted with the Langmuir model (1:1 interaction) using ProteOn Manager 3.1.0 (Version 3.1.0.6) software.
For the molecule B1, the “gap in off-rate human vs cyno” value turned out to be 7.5 fold.

As to B2, the “gap in off-rate human vs cyno” value stood at 8 fold.

Consider B3, for which the “gap in off-rate human vs cyno” value was 1 fold.

With B4, the “gap in off-rate human vs cyno” value amounted to 8 fold.

With B5, the “gap in off-rate human vs cyno” value amounted to 9 fold.

For B6, the “gap in off-rate human vs cyno” value was determined as 2 fold.

As for B7, the “gap in off-rate human vs cyno” value came out at 1.1 fold.

Consider B8, for which the “gap in off-rate human vs cyno” value came to 3 fold.

Turning to B9, the “gap in off-rate human vs cyno” value stood at 5 fold.

A further assay has as its target T2, Cynomolgus TCR(AEA41865/AEA41866)-zipper protein (cynomolgus monkey).
T2 construct: also called cyTCR-zipper protein; cynoTCR zipper
T2 TCR alpha: T1 TCR alpha
T2 TCR beta: T1 TCR beta
Nature of the assay: SPR, ProteOn XPR36, 25 C, immobilised TCR-zipper. In general terms: SPR reads the build-up and loss of mass on a sensor chip optically.
Description: HuTCR-zipper or cyTCR-zipper protein was immobilized on a GLC sensor chip (between 100-200 RU) via amine coupling chemistry, using EDC/NHS for activation of the carboxyl groups on the chip surface (running buffer: HBS-EP+, pH7.4). […] Processed sensorgrams were fitted with the Langmuir model (1:1 interaction) using ProteOn Manager 3.1.0 (Version 3.1.0.6) software.
The term Kd denotes the concentration at which binding is half-saturated. The low end stands for a tighter complex, the high end for a looser complex. B10: the Kd was found to be 240 nM.

Molecule B11 registered a Kd of 15000 nM.

As to B12, the Kd came out at 900 nM.

For the molecule B13, binding was characterised by a dissociation constant (Kd) of 290 nM.

B14 came in with a Kd of 5.2 nM.

For the molecule B15, the Kd was determined as 5.5 nM.

B16 returned a Kd of 44 nM.

Turning to B17, the Kd was determined as 29 nM.

For a further assay, the target named is T3, Human T cell receptor on human primary T cells (human, UniProt P01848 1-140; P01850 1-176).
T3 TCR alpha (looked up): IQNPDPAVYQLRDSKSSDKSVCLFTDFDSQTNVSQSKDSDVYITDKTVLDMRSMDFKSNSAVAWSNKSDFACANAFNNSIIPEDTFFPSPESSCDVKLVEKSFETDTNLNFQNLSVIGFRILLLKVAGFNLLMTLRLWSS
T3 TCR beta (looked up): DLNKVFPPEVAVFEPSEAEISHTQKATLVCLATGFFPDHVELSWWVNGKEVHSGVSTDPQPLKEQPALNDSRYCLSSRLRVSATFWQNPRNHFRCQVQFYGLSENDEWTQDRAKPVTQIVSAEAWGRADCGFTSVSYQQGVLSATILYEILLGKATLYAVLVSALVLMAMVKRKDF
As to the kind of experiment: cell-based or functional assay.
In the case of B10, the “% Lysis, T cell mediated MOLM-13 cell killing, human primary T cells, E:T 10:1” value (from here on “% Lysis … human primary T cells, E:T 10:1”) was determined as 0%.

Regarding B11, the “% Lysis … human primary T cells, E:T 10:1” value was determined as 37% and the “EC50 (M), T cell mediated MOLM-13 cell killing, human primary T cells, E:T 10:1” value (from here on “EC50 (M) … human primary T cells, E:T 10:1”) was found to be 5.7e-10 M.

Take B12: the “% Lysis … human primary T cells, E:T 10:1” value is 0%.

As for B13, the “% Lysis … human primary T cells, E:T 10:1” value was found to be 0%.

For B14, the “% Lysis … human primary T cells, E:T 10:1” value was 36% and the “EC50 (M) … human primary T cells, E:T 10:1” value amounted to 2.4e-10 M.

For B15, the “% Lysis … human primary T cells, E:T 10:1” value is 32% and the “EC50 (M) … human primary T cells, E:T 10:1” value was found to be 3e-10 M.

For B16, the “% Lysis … human primary T cells, E:T 10:1” value was determined as 42% and the “EC50 (M) … human primary T cells, E:T 10:1” value was found to be 3.6e-11 M.

For the molecule B17, the “% Lysis … human primary T cells, E:T 10:1” value was found to be 36% and the “EC50 (M) … human primary T cells, E:T 10:1” value is 6.6e-11 M.

For the next assay, the target named is T1, Cynomolgus …. Nature of the assay: SPR ProteOn off-rate screen.
Description: as §1
As usually defined, the koff is the rate constant with which the complex falls apart. A lower koff goes with slow dissociation. As for B2, the koff amounted to 0.00141 s⁻¹.

Consider B3, for which the koff came to 0.000364 s⁻¹.

Molecule B4 registered a koff of 0.00115 s⁻¹.

On to B5, for which the koff worked out at 0.00308 s⁻¹.

Molecule B6 had a koff of 0.00055 s⁻¹.

As for B7, the koff came to 0.00087 s⁻¹.

B8 showed a koff of 0.000221 s⁻¹.

As to B9, the off-rate constant (koff) is 0.00216 s⁻¹.

For another assay, the target named is T1, Cynomolgus …. Nature of the assay: SPR ProteOn off-rate screen. This is another data set of the same source.
Description: as §1
B18 gave a koff of 0.00672 s⁻¹.

As to B19, the off-rate constant (koff) was found to be 0.00171 s⁻¹.

For the molecule B20, the koff turned out to be 0.00555 s⁻¹.

Molecule B21 displayed a dissociation rate constant (koff) of 0.0216 s⁻¹.

The molecule B22 yielded a koff of 0.0087 s⁻¹.

In turn, B23 came in with a koff of 0.0148 s⁻¹.

For the molecule B24, the koff was found to be 0.00559 s⁻¹.

For the molecule B25, the koff was 0.0121 s⁻¹.

Molecule B26 returned a koff of 0.0178 s⁻¹.

Take B27: the koff was found to be 0.0151 s⁻¹.

The target of a further assay is Cynomolgus T cell receptor on cynomolgus primary T cells (cynomolgus monkey). As to the kind of experiment: cell-based or functional assay.
In the case of B10, the “EC50 (M), T cell mediated MOLM-13 cell killing, cynomolgus primary T cells, E:T 10:1” value (“EC50 (M) … cynomolgus primary T cells, E:T 10:1” for short) was 4.5e-10 M.

Consider B11, for which the “% Lysis, T cell mediated MOLM-13 cell killing, cynomolgus primary T cells, E:T 10:1” value (from here on “% Lysis … cynomolgus primary T cells, E:T 10:1”) was 6%.

Take B12: the “% Lysis … cynomolgus primary T cells, E:T 10:1” value was found to be 12% and the “EC50 (M) … cynomolgus primary T cells, E:T 10:1” value was 1.6e-10 M.

With B13, the “% Lysis … cynomolgus primary T cells, E:T 10:1” value was 35% and the “EC50 (M) … cynomolgus primary T cells, E:T 10:1” value is 2e-10 M.

On to B14, for which the “% Lysis … cynomolgus primary T cells, E:T 10:1” value is 19% and the “EC50 (M) … cynomolgus primary T cells, E:T 10:1” value was 3.8e-11 M.

Take B15: the “% Lysis … cynomolgus primary T cells, E:T 10:1” value came to 37% and the “EC50 (M) … cynomolgus primary T cells, E:T 10:1” value came to 4e-11 M.

On to B16, for which the “% Lysis … cynomolgus primary T cells, E:T 10:1” value is 28% and the “EC50 (M) … cynomolgus primary T cells, E:T 10:1” value came to 4.1e-11 M.

Take B17: the “% Lysis … cynomolgus primary T cells, E:T 10:1” value amounted to 20% and the “EC50 (M) … cynomolgus primary T cells, E:T 10:1” value is 6.7e-11 M.
